Measurements reported in patent publication US6864238.

Target: Bovine brain α/β tubulin (bovine) (UniProt P81947)
Test: cell-based or functional assay

Sequence of Bovine brain α/β tubulin (bovine) (P81947 whole entry, chain 1 of 2): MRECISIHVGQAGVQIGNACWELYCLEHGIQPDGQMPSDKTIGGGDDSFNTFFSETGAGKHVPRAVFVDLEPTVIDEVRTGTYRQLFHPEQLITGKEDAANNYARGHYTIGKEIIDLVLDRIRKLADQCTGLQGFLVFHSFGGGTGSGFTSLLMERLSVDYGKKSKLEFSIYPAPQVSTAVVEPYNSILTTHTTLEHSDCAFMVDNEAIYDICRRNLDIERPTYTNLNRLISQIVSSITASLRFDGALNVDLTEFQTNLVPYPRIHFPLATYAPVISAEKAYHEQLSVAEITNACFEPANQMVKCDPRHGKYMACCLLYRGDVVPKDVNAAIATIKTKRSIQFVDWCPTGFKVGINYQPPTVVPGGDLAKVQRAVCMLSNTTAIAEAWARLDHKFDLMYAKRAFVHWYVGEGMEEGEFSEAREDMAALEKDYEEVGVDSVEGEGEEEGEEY
Sequence of Bovine brain α/β tubulin (bovine) (Q6B856 whole entry, chain 2 of 2, further chain): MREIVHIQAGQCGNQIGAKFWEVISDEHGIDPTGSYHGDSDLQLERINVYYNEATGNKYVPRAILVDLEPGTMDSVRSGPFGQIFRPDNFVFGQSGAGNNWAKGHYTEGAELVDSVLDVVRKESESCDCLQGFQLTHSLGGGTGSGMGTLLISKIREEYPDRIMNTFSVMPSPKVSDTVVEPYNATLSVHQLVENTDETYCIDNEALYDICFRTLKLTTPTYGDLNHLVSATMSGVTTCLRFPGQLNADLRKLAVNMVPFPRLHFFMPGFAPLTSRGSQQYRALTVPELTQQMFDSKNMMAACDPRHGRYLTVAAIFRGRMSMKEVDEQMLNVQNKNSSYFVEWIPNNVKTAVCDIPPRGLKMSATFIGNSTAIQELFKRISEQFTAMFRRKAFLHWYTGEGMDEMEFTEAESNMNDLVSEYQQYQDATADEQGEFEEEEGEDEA

distribution of tubulin in supernatant and pellet, in vitro microtubule sedimentation assay (15 µM tubulin): 40 µM
Substance: GST-PN2-2 (from UniProt Q9HC77 191-310)
